Data from US20130123350, “NUCLEIC ACID MOLECULE CAPABLE OF BINDING TO c-MET AND USE THEREOF” (KANAGAWA PREFECTURAL HOSPITAL ORGANIZATION, published 2013).

Key:
[1] = target: T1, rec-cMet (Recombinant Human HGF R/c-MET/Fc Chimera) (Homo sapiens, UniProt P08581;P08581 SEQ:1-283,SEQ:1-625); assay: SPR; rec-cMet 175 nM; conditions: tags: C-terminal HIEGRMD linker, human IgG Fc (100-330), 6xHis; R&D Systems; chain copies: 2 (inferred, Fc chimera)
Procedure: (§1) Using these truncated RNA aptamers, the binding ability thereof to the rec-cMet was examined. The binding ability was analyzed using BIACORE (registered trademark) X (GE Healthcare) in accordance with its instructions for use, with the concentration of the rec-cMet being set to 175 nmol/L. Also, the binding ability of each of the RNA aptamers g1 and g1-trA was examined in the same manner. As a comparative example, the 40N was used, and the binding ability thereof was examined in the same manner.

[2] = target: rec-NGFR (Recombinant Human NGF R/TNFRSF16/Fc Chimera) (Homo sapiens, UniProt P08138 SEQ:1-222); assay: ELONA; signal below 40N; conditions: tags: C-terminal DIEGRMD linker, human IgG Fc (100-330), 6xHis; R&D Systems; chain copies: 2 (inferred, Fc chimera)
rec-NGFR (Recombinant Human NGF R/TNFRSF16/Fc Chimera), sequence (P08138 29-250, change not shown): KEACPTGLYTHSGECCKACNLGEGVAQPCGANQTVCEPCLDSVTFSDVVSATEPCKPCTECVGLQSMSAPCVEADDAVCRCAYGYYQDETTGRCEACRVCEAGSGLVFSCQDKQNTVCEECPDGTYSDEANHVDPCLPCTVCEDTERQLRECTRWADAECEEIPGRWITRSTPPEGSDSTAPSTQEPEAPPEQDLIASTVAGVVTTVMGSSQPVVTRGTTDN
Procedure: (§2) Next, a 20-mer polyadenine (poly A) was added to the 3′ end of each of the RNA aptamers. Thus, poly-A-added RNA aptamers were prepared. Each of the poly-A-added RNA aptamers was denatured, and thereafter, the denatured poly-A-added RNA aptamer was mixed with a 20-mer biotinylated polythymine with its 5′ end being biotinylated (740 nmol/L), tRNA (100 μg/mL), and an RNase inhibitor (0.16 units/mL). As a result, complementary binding occurred between the poly A in the poly-A-added RNA aptamer and the polythymine (poly T) in the biotinylated polythymine, whereby a biotin-labeled RNA aptamer was produced. The biotin-labeled RNA aptamer was added to the plate, and the plate was incubated at 4° C. for 30 minutes. Subsequently, the plate was washed, and 0.1 μg/mL HRP-streptavidin (Thermo Fisher Scientific Inc., USA) was added thereto. The plate was then washed, after which a 1-Step Ultra TMB substrate (Thermo Fisher Scientific Inc., USA) was added to the plate to cause color development, and the absorbance at 450 nm was measured.
The binding ability of each of the RNA aptamers to the rec-NGFR was examined in the same manner as in Example 1, except that the rec-NGFR was bound to the plate. Also, as a comparative example, the 40N was used, and the binding ability thereof was examined in the same manner.

[3] = target: T1, rec-cMet (Recombinant Human HGF …); assay: ELONA; 3' polyA20/biotin-polyT; also SPR FIG. 11; conditions: tags: C-terminal HIEGRMD linker, human IgG Fc (100-330), 6xHis; R&D Systems; chain copies: 2 (inferred, Fc chimera)
Procedure: (§3) An anti-IgG antibody (trade name: “Human IgG-Fc Antibody”, Bethyl Laboratories) was adsorbed on a 96-well plate (Iwaki, AGC Techno Glass Co., Ltd., Japan), and then was subjected to blocking using 1% bovine serum albumin. Subsequently, 50 μL of the 1 μg/mL rec-cMet was added to the plate. Further, Tris (20 mmol/L), sodium chloride (100 mmol/L), magnesium acetate (0.1 mmol/L) and Triton (registered trademark)-X100 (0.2%) were added to the plate so that their final concentrations would be as shown in the parentheses. The plate was incubated at room temperature for 3 hours, thus causing the rec-cMet to bind to the plate. After the incubation, the plate was washed three times with a washing solution. The composition of the washing solution was as follows: 20 mmol/L Tris, 100 mmol/L sodium chloride, 0.1 mmol/L magnesium acetate, and 0.2% Triton (registered trademark)-X100. As a control, incubation and washing were carried out in the same manner, except that 50 μL of the washing solution was added instead of 50 μL of the rec-cMet.
as §2

[4] = target: T1, rec-cMet (Recombinant Human HGF …); assay: ELONA; high binding; Table 2 misnumbers as SEQ 47; also SPR FIG. 11; conditions: tags: C-terminal HIEGRMD linker, human IgG Fc (100-330), 6xHis; R&D Systems; chain copies: 2 (inferred, Fc chimera)
Procedure: as §3
(§4) Next, a 20-mer polyadenine (poly A) was added to the 3′ end of each of the RNA aptamers. Thus, poly-A-added RNA aptamers were prepared. […] The plate was then washed, after which a 1-Step Ultra TMB substrate (Thermo Fisher Scientific Inc., USA) was added to the plate to cause color development, and the absorbance at 450 nm was measured.

[5] = target: T1, rec-cMet (Recombinant Human HGF …); assay: SPR; best fluorinated binder; rec-cMet 60 nM; conditions: tags: C-terminal HIEGRMD linker, human IgG Fc (100-330), 6xHis; R&D Systems; chain copies: 2 (inferred, Fc chimera)
Description: (§5) The binding ability of each of the RNA aptamers to the rec-cMet was examined in the same manner as in Example 5, except that the fluorinated RNA aptamers were used. The concentration of the rec-cMet was set to 60 nmol/L. With the time point at which the introduction of the rec-cMet to the chip was started being 0 seconds, introduction of a buffer was started 60 seconds later. As a comparative example, the same negative control as in Example 6 was used.
(§6) FIG. 12 is a graph showing the binding ability of each of the RNA aptamers to the rec-cMet. In FIG. 12, the vertical axis indicates the signal intensity (RU) measured with BIACORE (registered trademark) X. The signal intensity shown in the graph is a value measured at the 60th second when the buffer was introduced. […] By fluorination, these RNA aptamers had acquired RNase resistance and they also maintained the bonding force to the c-Met. Thus, it can be seen that these fluorinated RNA aptamers are particularly suitable for use in vivo and in vitro. All the RNA aptamers maintained equivalent signal values subsequent to the 60th second. Thus, it was confirmed that no decrease in binding ability occurred.

[6] = target: T1, rec-cMet (Recombinant Human HGF …); assay: ELONA; high binding; 3' polyA20 hybridised to biotin-polyT; 20 mM Tris, 100 mM NaCl, 0.1 mM Mg acetate, 4 C; also SPR FIG. 11; conditions: tags: C-terminal HIEGRMD linker, human IgG Fc (100-330), 6xHis; R&D Systems; chain copies: 2 (inferred, Fc chimera)
Procedure: as §3, §4

[7] = target: T1, rec-cMet (Recombinant Human HGF …); assay: ELONA; Table 2 misnumbers as SEQ 48; also SPR FIG. 11; conditions: tags: C-terminal HIEGRMD linker, human IgG Fc (100-330), 6xHis; R&D Systems; chain copies: 2 (inferred, Fc chimera)
Procedure: as §3, §4

[8] = target: T1, rec-cMet (Recombinant Human HGF …); assay: SPR; rec-cMet 175 nM; also ELISA signal above g1 (FIG. 7); conditions: tags: C-terminal HIEGRMD linker, human IgG Fc (100-330), 6xHis; R&D Systems; chain copies: 2 (inferred, Fc chimera)
Procedure: as §1

[9] = target: T1, rec-cMet (Recombinant Human HGF …); assay: SPR; excellent binding; rec-cMet 60 nM; conditions: tags: C-terminal HIEGRMD linker, human IgG Fc (100-330), 6xHis; R&D Systems; chain copies: 2 (inferred, Fc chimera)
Description: as §5, §6

[10] = target: T1, rec-cMet (Recombinant Human HGF …); assay: ELONA; high binding; Table 2 misnumbers as SEQ 45; also SPR FIG. 11; conditions: tags: C-terminal HIEGRMD linker, human IgG Fc (100-330), 6xHis; R&D Systems; chain copies: 2 (inferred, Fc chimera)
Procedure: as §3, §4

[11] = target: T1, rec-cMet (Recombinant Human HGF …); assay: ELONA; high binding; 3' polyA20/biotin-polyT; also SPR FIG. 11; conditions: tags: C-terminal HIEGRMD linker, human IgG Fc (100-330), 6xHis; R&D Systems; chain copies: 2 (inferred, Fc chimera)
Procedure: as §3, §4

[12] = target: T1, rec-cMet (Recombinant Human HGF …); assay: ELONA; highest binding; Table 2 misnumbers as SEQ 46; also SPR FIG. 11; conditions: tags: C-terminal HIEGRMD linker, human IgG Fc (100-330), 6xHis; R&D Systems; chain copies: 2 (inferred, Fc chimera)
Procedure: as §3, §4

T1 sequence (P08581 25-307, stated change not applied, chain 1 of 2): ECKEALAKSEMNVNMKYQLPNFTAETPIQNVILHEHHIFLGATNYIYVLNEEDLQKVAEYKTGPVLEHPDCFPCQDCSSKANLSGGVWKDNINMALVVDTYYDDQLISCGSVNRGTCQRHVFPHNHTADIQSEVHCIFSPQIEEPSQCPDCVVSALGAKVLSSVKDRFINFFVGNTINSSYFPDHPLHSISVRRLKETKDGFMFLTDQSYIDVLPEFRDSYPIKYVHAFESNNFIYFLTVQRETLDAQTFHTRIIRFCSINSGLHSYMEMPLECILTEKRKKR
T1 sequence (P08581 308-932, stated change not applied, chain 2 of 2): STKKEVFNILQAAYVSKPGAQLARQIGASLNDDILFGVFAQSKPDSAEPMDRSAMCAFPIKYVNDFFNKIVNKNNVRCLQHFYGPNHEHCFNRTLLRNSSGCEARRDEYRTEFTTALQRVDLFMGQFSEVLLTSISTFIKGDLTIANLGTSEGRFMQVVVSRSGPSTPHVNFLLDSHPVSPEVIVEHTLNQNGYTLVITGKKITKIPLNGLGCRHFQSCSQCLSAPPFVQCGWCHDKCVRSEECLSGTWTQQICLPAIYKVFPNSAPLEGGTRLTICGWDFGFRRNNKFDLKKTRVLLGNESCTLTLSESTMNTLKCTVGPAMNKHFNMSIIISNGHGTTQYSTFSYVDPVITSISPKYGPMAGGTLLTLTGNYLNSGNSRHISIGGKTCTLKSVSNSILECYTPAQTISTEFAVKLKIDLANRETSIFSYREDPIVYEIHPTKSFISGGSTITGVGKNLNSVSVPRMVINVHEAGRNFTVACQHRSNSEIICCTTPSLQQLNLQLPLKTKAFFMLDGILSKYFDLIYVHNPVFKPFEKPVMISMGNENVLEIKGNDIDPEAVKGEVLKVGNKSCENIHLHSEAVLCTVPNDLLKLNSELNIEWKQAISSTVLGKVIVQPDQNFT

For GGGACUGAGAGUUUGACCAGCUAUUAAAUGGGUCGUGACUCAGU (ssRNA) [g1-miniA], which Kd [1] is on record?
The Kd was 7.98 nM.

B1: g2 (ssRNA)
RNA: GGGACGCUCACGUACGCUAAACCCUGGCGAUCUCCGGCCGGAUACGGGAGAACGAGGUACUCAGUGCCUGGACGUGCAGU
Does B1 bind [2]?
Result: no binding

Does B1 bind [3]?
Result: binds

B2: g8 (ssRNA)
RNA: GGGACGCUCACGUACGCUAAGGGCACUUAAAACCAGACCGUGAUUUGCGGUUGGUCUCGCUCAGUGCCUGGACGUGCAGU
Does B2 bind [2]?
Result: no binding

Does B2 bind [4]?
Result: binds

B3: g38 2'-F (ssRNA)
RNA: GGGACGCUCACGUACGCUAACCAGGAGCAUUAGACCGGGGAAAGAAGGAGUACCGUCUGGUCAGUGCCUGGACGUGCAGU
modifications: 2'-F on all C and U
Does B3 bind [5]?
Result: binds

B4: g1 (ssRNA)
RNA: GGGACGCUCACGUACGCUAAACACACUGAGAGUUUGACCAGCUAUUAAAUGGGUCGUGACUCAGUGCCUGGACGUGCAGU
Does B4 bind [2]?
Result: no binding

Does B4 bind [6]?
Result: binds

B5: g3 (ssRNA)
RNA: GGGACGCUCACGUACGCUAAGGGCGAAACUGUCGUGACACGGUUUGACAUGCCGGCCUUAUCAGUGCCUGGACGUGCAGU
Does B5 bind [2]?
Result: no binding

Does B5 bind [3]?
Result: binds

B6: g9 (ssRNA)
RNA: GGGACGCUCACGUACGCUAAGAUGUCUCAAUUGGUCGUGAUUGUGCUGACCACACGAACCUCAGUGCCUGGACGUGCAGU
Does B6 bind [2]?
Result: no binding

Does B6 bind [7]?
Result: binds

With GGGCACUGAGAGUUUGACCAGCUAUUAAAUGGGUCGUGACUCAGUG (ssRNA) [g1-trA] as the binder, how does the Kd [8] read?
Its Kd is 8.18 nM.

How did the Kd [1] turn out when GGGCUGAGAGUUUGACCAGCUAUUAAAUGGGUCGUGACUCAG (ssRNA) [g1-miniB] was run?
Its Kd is 26.4 nM.

B7: g25 2'-F (ssRNA)
RNA: GGGACGCUCACGUACGCUAAUAGCAACAGUUCCCAGAGGUGAUCAGGCAGCCUUAAGACAUCAGUGCCUGGACGUGCAGU
modifications: 2'-F on all C and U
Does B7 bind [9]?
Result: binds

Does GGGUGAGAGUUUGACCAGCUAUUAAAUGGGUCGUGACUCA (ssRNA) [g1-miniC] bind [1]?
Result: binds

B8: g6 (ssRNA)
RNA: GGGACGCUCACGUACGCUAAUCCAGGUGUGGCGAGCCACUGUAAGAGUCGCCGUGAGGAUUCAGUGCCUGGACGUGCAGU
Does B8 bind [2]?
Result: no binding

Does B8 bind [10]?
Result: binds

B9: g5 (ssRNA)
RNA: GGGACGCUCACGUACGCUAAGCCCAACGAACAUUUUGAGUUUCCAGGCAGCUCAUAGACAUCAGUGCCUGGACGUGCAGU
Does B9 bind [2]?
Result: no binding

Does B9 bind [11]?
Result: binds

B10: g29 2'-F (ssRNA)
RNA: GGGACGCUCACGUACGCUAAACGAGCCGUGAUUGGGUUGGCAACCCUGCUUAUGUGAGGAUCAGUGCCUGGACGUGCAGU
modifications: 2'-F on all C and U
Does B10 bind [9]?
Result: binds

B11: g4 (ssRNA)
RNA: GGGACGCUCACGUACGCUAAUACCGUGAUUCGGGGUGGUAUCCGGUGGACAUCCAGGUCGUCAGUGCCUGGACGUGCAGU
Which results are given for B11?
binding result [2]: no binding; binding result [3]: binds

B12: g7 (ssRNA)
RNA: GGGACGCUCACGUACGCUAACUUGAAGUCAAGGGUAGAGUGACCAUGCAGCUCGUAGACAUCAGUGCCUGGACGUGCAGU
Which results are given for B12?
binding result [2]: no binding; binding result [12]: binds
